Test results taken from the supplement of paper PMC10567573.

B1: MIA2 (parent)
chain: SVIEPVQESSFRSRKIAVEDENDL

Variants of: B1
Assay: protein stability index of a GFP-peptide fusion (GPS, HEK-293T) (PSI 1-6); higher = more stable
Conditions: c terminus: a fixed tail appended
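Also: lentivirally expressed fusions sorted by FACS into six bins by GFP to DsRed ratio, PSI derived from sequencing read proportions per bin multiplied by bin number.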

In order of falling protein stability index:
1. SVIEPVQESSFPSRKIAVEDENDL [R12P]  6
2. SVIEPVQESSFSSRKIAVEDENDL [R12S]  5.94
3. SVIEPVQESSDRSRKIAVEDENDL [F11D]  5.92
4. SVIEPVQESSTRSRKIAVEDENDL [F11T]  5.86
5. SVIEPVQESSERSRKIAVEDENDL [F11E]  5.84
6. SVIEPVQESSFASRKIAVEDENDL [R12A]  5.81
7. SVIEPVQESGFRSRKIAVEDENDL [S10G]  5.78
8. SVIEPVQESHFRSRKIAVEDENDL [S10H]  5.77
9. SVIEPVQESSFESRKIAVEDENDL [R12E]  5.75
10. SVIEPVQESSFRSNKIAVEDENDL [R14N]  5.75
11. SVIEPVQESSFRSDKIAVEDENDL [R14D]  5.75
12. SVIEPVQESSFRSRKDAVEDENDL [I16D]  5.68
13. SVIEPVQESQFRSRKIAVEDENDL [S10Q]  5.67
14. SVIEPVQESSFRSKKIAVEDENDL [R14K]  5.67
15. SVIEPVQESSFRSQKIAVEDENDL [R14Q]  5.67
16. SVIEPVQESSRRSRKIAVEDENDL [F11R]  5.67
17. SVIEPVQESSFHSRKIAVEDENDL [R12H]  5.66
18. SVIEPVQESSNRSRKIAVEDENDL [F11N]  5.62
19. SVIEPVQESSFNSRKIAVEDENDL [R12N]  5.61
20. SVIEPVQESSFDSRKIAVEDENDL [R12D]  5.6
21. SVIEPVQESSFRSGKIAVEDENDL [R14G]  5.55
22. SVIEPVQESDFRSRKIAVEDENDL [S10D]  5.54
23. SVIEPVQESKFRSRKIAVEDENDL [S10K]  5.54
24. SVIEPVQESSFRRRKIAVEDENDL [S13R]  5.53
25. SVIEPVQESSFGSRKIAVEDENDL [R12G]  5.53
26. SVIEPVQESSFRSAKIAVEDENDL [R14A]  5.53
27. SVIEPVQESSFRSVKIAVEDENDL [R14V]  5.51
28. SVIEPVQESAFRSRKIAVEDENDL [S10A]  5.49
29. SVIEPVQESSFTSRKIAVEDENDL [R12T]  5.46
30. SVIEPVQESSLRSRKIAVEDENDL [F11L]  5.46
31. SVIEPVQESSFQSRKIAVEDENDL [R12Q]  5.44
32. SVIEPVQESSWRSRKIAVEDENDL [F11W]  5.44
33. SVIEPVQESSFKSRKIAVEDENDL [R12K]  5.42
34. SVIEPVQESSFMSRKIAVEDENDL [R12M]  5.41
35. SVIEPVQESSFRSPKIAVEDENDL [R14P]  5.4
36. SVIEPVQESSFRSHKIAVEDENDL [R14H]  5.4
37. SVIEPVQESSKRSRKIAVEDENDL [F11K]  5.4
38. SVIEPVQESSHRSRKIAVEDENDL [F11H]  5.37
39. SVIEPVQESSFVSRKIAVEDENDL [R12V]  5.36
40. SVIEPVQESCFRSRKIAVEDENDL [S10C]  5.34
41. SVIEPVQESSFRSEKIAVEDENDL [R14E]  5.32
42. SVIEPVQESSFRSTKIAVEDENDL [R14T]  5.31
43. SVIEPVQESSFRERKIAVEDENDL [S13E]  5.3
44. SVIEPVQESNFRSRKIAVEDENDL [S10N]  5.28
45. SVIEPVQESVFRSRKIAVEDENDL [S10V]  5.28
46. SVIEPVQESSGRSRKIAVEDENDL [F11G]  5.28
47. SVIEPVQESEFRSRKIAVEDENDL [S10E]  5.27
48. SVIEPVQESSSRSRKIAVEDENDL [F11S]  5.26
49. SVIEPVQESSYRSRKIAVEDENDL [F11Y]  5.26
50. SVIEPVQESSFRHRKIAVEDENDL [S13H]  5.25
51. SVIEPVQESSFLSRKIAVEDENDL [R12L]  5.22
52. SVIEPVQESSFRLRKIAVEDENDL [S13L]  5.19
53. SVIEPVQESSFRSRKEAVEDENDL [I16E]  5.19
54. SVIEPVQESSMRSRKIAVEDENDL [F11M]  5.19
55. SVIEPVQESSFRPRKIAVEDENDL [S13P]  5.18
56. SVIEPVQESSFRKRKIAVEDENDL [S13K]  5.18
57. SVIEPVQESSVRSRKIAVEDENDL [F11V]  5.16
58. SVIEPVQESSIRSRKIAVEDENDL [F11I]  5.15
59. SVIEPVQESSFRSSKIAVEDENDL [R14S]  5.13
60. SVIEPVQESSFRYRKIAVEDENDL [S13Y]  5.12
61. SVIEPVQESSFRSRKFAVEDENDL [I16F]  5.12
62. SVIEPVQESSFISRKIAVEDENDL [R12I]  5.12
63. SVIEPVQESSFRSCKIAVEDENDL [R14C]  5.08
64. SVIEPVQESSPRSRKIAVEDENDL [F11P]  5.08
65. SVIEPVQESSFRDRKIAVEDENDL [S13D]  5.05
66. SVIEPVQESSFRCRKIAVEDENDL [S13C]  5.05
67. SVIEPVQESSFRSIKIAVEDENDL [R14I]  5.04
68. SVIEPVQESSFRQRKIAVEDENDL [S13Q]  5.03
69. SVIEPVQESSFRFRKIAVEDENDL [S13F]  5.03
70. SVIEPVQESRFRSRKIAVEDENDL [S10R]  5.02
71. SVIEPVQESPFRSRKIAVEDENDL [S10P]  5.02
72. SVIEPVQESSFRSMKIAVEDENDL [R14M]  5.02
73. SVIEPVQESSFYSRKIAVEDENDL [R12Y]  4.98
74. SVIEPVQESSFRSLKIAVEDENDL [R14L]  4.98
75. SVIEPVQESSCRSRKIAVEDENDL [F11C]  4.9
76. SVIEPVQESMFRSRKIAVEDENDL [S10M]  4.89
77. SVIEPVQESSFRMRKIAVEDENDL [S13M]  4.86
78. SVIEPVQESSFFSRKIAVEDENDL [R12F]  4.83
79. SVIEPVQESSFCSRKIAVEDENDL [R12C]  4.82
80. SVIEPVQESYFRSRKIAVEDENDL [S10Y]  4.81
81. SVIEPVQESSARSRKIAVEDENDL [F11A]  4.79
82. SVIEPVQESFFRSRKIAVEDENDL [S10F]  4.74
83. SVIEPVQESSFRWRKIAVEDENDL [S13W]  4.72
84. SVIEPVQESLFRSRKIAVEDENDL [S10L]  4.72
85. SVIEPVQESWFRSRKIAVEDENDL [S10W]  4.72
86. SVIEPVQESSFRSRKAAVEDENDL [I16A]  4.72
87. SVIEPVQESSQRSRKIAVEDENDL [F11Q]  4.71
88. SVIEPVQESSFWSRKIAVEDENDL [R12W]  4.55
89. SVIEPVQESTFRSRKIAVEDENDL [S10T]  4.48
90. SVIEPVQESSFRSYKIAVEDENDL [R14Y]  4.42
91. SVIEPVQESSFRSFKIAVEDENDL [R14F]  4.39
92. SVIEPVQESIFRSRKIAVEDENDL [S10I]  4.28
93. SVIEPVQESSFRSRKCAVEDENDL [I16C]  4.17
94. SVIEPVQESSFRSWKIAVEDENDL [R14W]  4.13
